# Measurements as given in the supplement of paper PMC10126150.
# ± gives the standard deviation of the averaged measurements.
# Tested on: ATP
# Test: switch fluorescence ratio, 500 uM ATP over buffer (Cy3 cluster intensity, sum of 5 cycles each) (fold (ratio)); higher = stronger signal-on switching upon ATP binding; sequences stand for … in TCGTCGGCAGCGTCAGATGTGTATAAGAGACAGTTTTTTTTTTTTTTTTTTTTTTTTT…TC
# Conditions: aptamer strand: ATP DNA aptamer (quencher-CACCTGGGGGAGTATTGCGGAGGAAGG + anchor), 100 nM annealed; ATP concentration: 500 uM
# In short: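 The quencher-labelled ATP aptamer, at 100 nM, was annealed to Cy3-labelled switching-strand clusters on a modified Illumina MiSeq flow-cell. The clusters were imaged in selection buffer, then after 15 min with 500 uM ATP at 22 °C, and this buffer/ATP cycle ran five times with NaOH stripping and re-annealing between runs. Per-cluster fluorescence ratios, summed target-cycle over summed buffer-cycle Cy3 intensity, were averaged per switch-domain sequence. Clusters outside 100-1000 RFU were excluded.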
# 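Further: ATP exposure 15 min at 22 °C before imaging.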
row,Sequence,switch fluorescence ratio
1,GGATCAGAGA,1.08 ± 0.023
2,GTGGGCCGAG,1.021 ± 0.0076
3,CGTTGTTATG,0.9852 ± 0.0067
4,TTTTTAAACT,0.9921 ± 0.0076
5,TAAATGGGGA,0.995 ± 0.025
6,AAGGACGCTG,0.991 ± 0.069
7,TAGGGTAAGG,0.97 ± 0.035
8,CGTAATTTTC,1.09 ± 0.083
9,GAGTCTGGGA,1.032 ± 0.0051
10,TTTAGGGGAG,0.994 ± 0.022
11,GTTTCTTTTA,0.99 ± 0.02
12,GCTTATATTT,1.045 ± 0.0055
13,TGGTCTAGGT,1.01 ± 0.028
14,TTTGTCGGGT,0.994 ± 0.014
15,TACAAACGGT,1.17 ± 0.25
16,AACAAGGGGA,1.07 ± 0.067
17,TTTTCACTTC,1.03 ± 0.069
18,GTCGGGGAAG,0.958 ± 0.013
19,GGCAGTTGGG,0.9868 ± 0.007
20,ACTGGCTGAG,1.01 ± 0.024
21,AGTAGGCAAA,1.01 ± 0.014
22,TTGAAATTTG,1 ± 0.011
23,TCGGGAGTAT,1.04 ± 0.03

row,Sequence,switch fluorescence ratio
1,TTTGGACGTC,0.992 ± 0.037
2,GGGTTTAGCG,1.014 ± 0.0022
3,TTTTCTTTAT,1.03 ± 0.036
4,GTTGGTTGTA,0.987 ± 0.057
5,GGTTATATGT,1.02 ± 0.021
6,TTTCATCCCC,1.07 ± 0.034
7,AGAAAGGAAG,1.01 ± 0.024
8,TTTGACATGG,0.955 ± 0.029
9,TATTTTTAAA,1.02 ± 0.028
10,CGGGAATCGT,1 ± 0.05
11,AGAACTTTTA,0.998 ± 0.015
12,TTGCATGGAA,1.01 ± 0.0049
13,TGGATCATTT,0.999 ± 0.022
14,GGGTATTTTG,0.997 ± 0.046
15,TGACATTTGT,0.965 ± 0.048
16,TTGCGGGGG,1.01 ± 0.017
17,TACGATATTT,1.099 ± 0.0068
18,GTTGCCGGTT,1.026 ± 0.008
19,AGTTATCCGG,0.97 ± 0.044
20,GTGAAAATTT,1.07 ± 0.083
21,CAGGGATTGA,0.998 ± 0.0049
22,CGAAGTCGTC,1.02 ± 0.021
23,ACGAAGGGGT,1.03 ± 0.021

row,Sequence,switch fluorescence ratio
1,CATGCGCTTC,2.39 ± 0.12
2,GAGGGGTACT,1.025 ± 0.0042
3,TATTTCGGGG,1.02 ± 0.023
4,CACCAGAGCT,1.09 ± 0.026
5,TTTTTTGTTA,1 ± 0.024
6,GCGGATGAGC,0.995 ± 0.013
7,GACGTTTTGC,1.073 ± 0.0083
8,CAGGGGGATG,1.01 ± 0.032
9,GTATGACGTA,0.968 ± 0.037
10,TAACGGAGT,1.01 ± 0.015
11,GACGAGGGGC,1.18 ± 0.031
12,GATATACAGC,1.02 ± 0.017
13,CAGGTAGTGT,1.02 ± 0.024
14,CTGGCTGGCA,0.995 ± 0.01
15,GGAACGGGGG,1.02 ± 0.014
16,TATAGGTGTT,1.05 ± 0.028
17,ACCGAATAAT,1.03 ± 0.019
18,TCAACGGGGG,1.08 ± 0.17
19,GAAGGTGAAT,1.04 ± 0.022
20,TTCGGATAGT,0.98 ± 0.011
21,AATGGCATGG,1.02 ± 0.016
22,GATTCTGGTT,0.94 ± 0.029
23,CTCTGGGGTC,1.05 ± 0.048

row,Sequence,switch fluorescence ratio
1,TCGGTTAATA,1.018 ± 0.0054
2,TCCATGGGTG,1.52 ± 0.033
3,TGTATACTTT,1.018 ± 0.0081
4,AGATCGTTGT,0.978 ± 0.028
5,TTGGGATATG,1.02 ± 0.065
6,AAAAAAAGCG,0.979 ± 0.058
7,CGGGGGATTA,1.02 ± 0.049
8,CAGGCTAAAG,0.989 ± 0.032
9,CGCTGGGGGA,1.055 ± 0.0022
10,GAGGTGGGGC,1.05 ± 0.028
11,AGTGGGATAA,1.11 ± 0.099
12,GTATCTGATG,1.004 ± 0.0027
13,GGTGTATAGG,1.01 ± 0.011
14,AAATGCTTCA,1.03 ± 0.019
15,TTAAGCGTTT,0.9948 ± 0.009
16,GGCCGAGGGT,1.03 ± 0.025
17,AGAAGGGGTA,1.01 ± 0.046
18,TTGAAGTGGG,1.03 ± 0.014
19,CTAAAGGACT,0.9989 ± 0.0015
20,AACTTTTAGT,0.99353 ± 0.00074
21,TGCATCGGGG,0.983 ± 0.032
22,CGATTCGGGG,1.01 ± 0.03
23,TGTAGCAGCG,1.1 ± 0.16

row,Sequence,switch fluorescence ratio
1,TCATATATCT,0.9937 ± 0.0058
2,AGAAGGGTTG,1 ± 0.023
3,TTTTTTATCG,1 ± 0.031
4,ATTTTGTTGT,1.03 ± 0.048
5,ACGGTTTCTG,1.04 ± 0.029
6,TTAGGTATTA,0.9912 ± 0.0036
7,GTGGTTGGGA,0.992 ± 0.029
8,ATTGTCGCCG,1.02 ± 0.043
9,GTTGACTTGA,1.02 ± 0.03
10,AATTTAAAAC,1.02 ± 0.031
11,AGGGGTGCAG,0.995 ± 0.01
12,GTTATGGGGG,1.04 ± 0.013
13,CGAAAATCTT,0.9949 ± 0.0095
14,ATCAGGAAGT,0.992 ± 0.062
15,TGTTTGGTGT,0.9948 ± 0.005
16,CACGGGGGAT,1.03 ± 0.011
17,TGCTGGGGCT,0.9847 ± 0.0033
18,TCGTAATTGT,1.02 ± 0.024
19,TAGATGGCGG,1 ± 0.013
20,TCGCTATTTA,1.033 ± 0.0085
21,TTTTAGCGGT,0.974 ± 0.02
22,GGGGGTCACT,0.993 ± 0.026
23,AGTAGGGGGA,0.9912 ± 0.0034

row,Sequence,switch fluorescence ratio
1,TGTAAAGGGA,0.998 ± 0.024
2,CTGTTATGTG,0.952 ± 0.015
3,ATGGAACGGT,1.003 ± 0.0053
4,AGTTGTATGT,0.951 ± 0.037
5,TTGTGGTGAC,0.9866 ± 0.0012
6,CGGTGCCAAG,0.988 ± 0.042
7,GGGTGGCGTG,0.981 ± 0.082
8,GTAGGACCTA,1.01 ± 0.018
9,CGGCCGTATA,0.998 ± 0.013
10,TTTACGTGTT,0.991 ± 0.012
11,TGAGTGTGCT,0.972 ± 0.011
12,TCGGGTCGCG,0.9948 ± 0.00097
13,GGTCTATCGT,1 ± 0.039
14,ATTGTTTTGT,0.987 ± 0.051
15,TTTCGGCTTT,1.24 ± 0.3
16,TCCGTGTGTG,0.989 ± 0.0075
17,TATTCATTGT,1.005 ± 0.0074
18,ACTTACAGAA,1.23 ± 0.011
19,CAAATACGTT,1.01 ± 0.029
20,CTCCCACACG,2.35 ± 0.36
21,TGGGGGATCA,0.978 ± 0.029
22,TGCCCCTGGC,0.978 ± 0.042
23,CGAGTAAACG,1.02 ± 0.017

row,Sequence,switch fluorescence ratio
1,GGGGGTTACC,0.988 ± 0.02
2,TAGAGAATCG,1.065 ± 0.0062
3,AATAATTTGG,0.978 ± 0.012
4,GAAATATCAT,0.971 ± 0.018
5,ATTGTGTGGT,1.01 ± 0.026
6,CGGTTTAATA,1.03 ± 0.07
7,AATGTAAAAG,0.988 ± 0.039
8,GGGAATTACT,1.87 ± 1.1
9,TTATGGACGT,1.01 ± 0.02
10,TTGGTTGACA,0.9641 ± 0.0094
11,TTTAGGGTCA,0.962 ± 0.062
12,TCATTGGTTA,1.02 ± 0.042
13,ATCATGCTGT,0.9976 ± 0.0017
14,CAAAGCATCT,1.09 ± 0.011
15,TTGGTAAGCG,1.02 ± 0.051
16,AATGCCTCTT,1.013 ± 0.0028
17,TCAGGGACTT,0.9845 ± 0.0077
18,CAGAGGGGAG,1.03 ± 0.027
19,GACGACATGT,1.09 ± 0.035
